Experimental findings from US10844127 (MERUS N V, dated 2020) are described below.

The target of experiment [1] is T1, human EGFR, full length (human, UniProt P00533 25-1210). Description: cell-based or functional assay.
For experiment [2], the target named is T2, mouse EGFR ECD fused to human IgG1 Fc (Sino Biologicals cat. nr. 51091-M02H) (mouse; human, UniProt Q01279 25-647).
T2 construct: extracellular domain; also called murine EGFR; not shown: human IgG1 Fc
Description: ELISA on coated mouse EGFR ECD-human IgG1 Fc. On the technique in general: An ELISA detects its analyte on a solid surface through an enzyme-linked reagent.

The target of experiment [3] is T3, human EGFR ECD-Fc fusion protein (R&D Systems) (human, UniProt P00533 25-645).
T3 construct: extracellular domain; also called rhEGFR-Fc; EGFR-Fc; not shown: Fc part of the bought fusion protein, not described
Description: phage ELISA, Fab on phage, immobilized EGFR, no IgG.

The target in experiment [4] is T4, chimeric cynomolgus-human EGFR (cynomolgus ECD, human trans-membrane …, UniProt P55245 25-1210 (rhesus entry)).
T4 construct: also called cynomolgus EGFR; chimeric cyno-human receptor
Nature of the experiment: FACS, CHO cells transfected with chimeric cynomolgus/human EGFR, IgG at 5 µg/ml. In general terms: Flow cytometry measures light scatter and fluorescence of single cells or particles in a stream.

In experiment [5] the target is T3, human EGFR ECD-Fc fusion protein (R&D …). Nature of the experiment: phage ELISA, Fab on phage, immobilized EGFR, with competitor ICR10 (Domain I).
Experiment [6] shares this target. Nature of the experiment: phage ELISA, Fab on phage, immobilized EGFR, with competitor EGFR.1 (Domain II).
Experiment [7] has the same target. Description: phage ELISA, Fab on phage, immobilized EGFR, with competitor Cetuximab (Domain III).
The target is the same in experiment [8]. Description: phage ELISA, Fab on phage, immobilized EGFR, with competitor MatuzuMab (Domain III).
In experiment [9] the target is T1, human EGFR, full length. Nature of the experiment: FACS on CHO cells stably expressing wtEGFR (CHO-wtEGFR).
For the next experiment, the target named is T5, CHO-vIII (human, UniProt P00533).
T5 construct: expressed on CHO cells; also called EGFR variant III
Description: FACS on CHO cells expressing EGFR variant III (CHO-vIII).

Experiment [10] addresses T4, chimeric cynomolgus-human EGFR. Description: FACS, CHO cells transfected with chimeric cynomolgus/human EGFR, IgG at 5 µg/ml. This is another data set of the same source.
The target of another experiment is T6, CHO-delta II.
T6 construct: also called EGFR HER3 swap varII ECD; domain II swap mutant
Description: FACS on CHO cells expressing the domain II swap mutant (CHO-delta II).

A further experiment deals with T7, CHO-delta IV.
T7 construct: also called EGFR HER3 swap varIV ECD; domain IV swap mutant
Description: FACS on CHO cells expressing the domain IV swap mutant (CHO-delta IV).

For the next experiment, the target named is T8, CHO-delta III.
T8 construct: also called EGFR HER3 swap varIII ECD; domain III swap mutant
T8 chain: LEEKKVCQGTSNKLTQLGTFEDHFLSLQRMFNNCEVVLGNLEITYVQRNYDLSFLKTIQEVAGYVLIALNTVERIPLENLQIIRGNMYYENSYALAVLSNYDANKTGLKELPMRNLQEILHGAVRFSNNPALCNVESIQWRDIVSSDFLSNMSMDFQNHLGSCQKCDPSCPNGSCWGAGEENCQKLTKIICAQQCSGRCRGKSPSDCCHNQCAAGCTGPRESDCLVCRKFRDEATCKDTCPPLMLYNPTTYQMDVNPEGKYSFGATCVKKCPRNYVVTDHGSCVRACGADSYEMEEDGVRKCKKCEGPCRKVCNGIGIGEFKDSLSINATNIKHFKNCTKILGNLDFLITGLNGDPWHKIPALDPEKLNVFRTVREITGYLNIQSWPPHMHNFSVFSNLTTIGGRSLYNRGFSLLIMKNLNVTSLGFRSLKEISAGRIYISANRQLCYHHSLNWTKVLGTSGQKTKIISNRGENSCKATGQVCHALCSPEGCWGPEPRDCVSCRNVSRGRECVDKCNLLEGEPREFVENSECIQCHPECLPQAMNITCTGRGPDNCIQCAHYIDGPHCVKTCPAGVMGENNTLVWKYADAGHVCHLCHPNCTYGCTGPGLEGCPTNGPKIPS
Nature of the experiment: FACS on CHO cells expressing the domain III swap mutant (CHO-delta III).

Changes are numbered by the printed parent chain. Where two headings read alike, the source gives them in different places.

B1: PG4280 (antibody, IgG1, V domains shown)
VH: QVQLVQSGAEVKKPGASVKVSCKVSGYTLTELSMHWVRQAPGKGLEWMGGFDPEYGKTFFAQNFQGRVTMTEDTSADTAYMELSSLRSEDTAVYYCATEGYYETTTYYYNLFDSWGQGTLVTVSS
VL: not shown
notes: Mono-specific bivalent full length IgG1 with the common light chain; also called MF4280; MG4280
With B1, the “EGFR blocking activity compared to cetuximab (inhibition of EGF-induced cell death of A431 cells)” value with human EGFR, full length [1] amounted to 100%. Also, the binding result in experiment [2] is on record as “no binding (tested: 5 µg/ml)”; in experiment [4], “binds”. Moreover, the OD worked out at 2.55 in experiment [3]; 2.3 in experiment [5]; 2.13 in experiment [6]; 1.14 in experiment [7]; 0.613 in [8].

B2: PG4289 (antibody, IgG1, V domains shown)
VH: QVQLVQSGSELKKPGASVKVSCKTSGYTFTDYAMTWVRQAPGQGLEWMGWITTNTGDPTYAPGFTGRFVFSLDTSVSTAYLQISSLKAEDTAVYYCARVYHWIRGFEFWGQGTLVTVSS
VL: not shown
notes: Mono-specific bivalent full length IgG1 with the common light chain; also called MF4289; MG4289
With B2, in the experiment with human EGFR, full length [1], the “EGFR blocking activity compared to cetuximab (inhibition of EGF-induced cell death of A431 cells)” value is 80%. Also, the OD in experiment [3] is 2.28; in experiment [5], 2.05; in experiment [6], 2.23; in experiment [7] it was 2.22; in experiment [8], 2.36. For the same molecule, the binding result in experiment [4] is “binds”.

B3: PG4003 (antibody, IgG1, V domains shown)
VH: QVQLVQSGSELKKPGASVKVSCKASGYTFPSFAMNWLRQAPGQGLEWMGWITTNTGDPTYAQGFSGRFVFSLDTSVSTAYLQISSLKAEDTAVYYCARVYNWIRGFDYWGQGTLVTVSS
VL: not shown
notes: Mono-specific bivalent full length IgG1 with the common light chain; also called MF4003; MG4003
B3: the binding result is “binds” with human EGFR, full length [9]; “no binding” in the experiment with CHO-vIII; “binds” in experiment [10]; “binds” in the experiment with CHO-delta II; “binds” with CHO-delta IV; “binds” in the experiment with CHO-delta III.

B4: PG3998 (antibody, IgG1, V domains shown)
VH: QVQLVQSGSELKKPGASVKVSCKASGYTFTNNAINWVRQAPGQGLEWMGWINTITGDPTYAQGFTGRFVFSLDTSVSTAYLQISSLKAEDTGVYYCAREEFLEWLFFDYWGQGTLVTVSS
VL: not shown
notes: Mono-specific bivalent full length IgG1 with the common light chain, from 293F cells; also called MF3998; MG3998
Take B4: the “EGFR blocking activity compared to cetuximab (inhibition of EGF-induced cell death of A431 cells)” value in the experiment with human EGFR, full length [1] is greater than 100%. For the same molecule, the OD in [3] stood at 2.49; in experiment [5], 2.23; in experiment [6], 2.34; in experiment [7], 0.101; in experiment [8] it was 0.671. Also, the binding result in [4] is “binds”.

B5: PG4010 (antibody, IgG1, V domains shown)
VH: B4 VH with I34M, T59S, S77N, G92A
VL: not shown
notes: Mono-specific bivalent full length IgG1 with the common light chain; also called MF4010; MG4010
With B5, the binding result is “binds” in the experiment with human EGFR, full length [9]; “binds” in experiment [10]; “binds” in the experiment with CHO-delta II; “binds” with CHO-delta IV; “no binding” in the experiment with CHO-delta III.
